This note sets out measurements from the supplement of paper PMC9112550, “Optimization of the antimicrobial peptide Bac7 by deep mutational scanning” (BMC Biology, 2022).

The test system of the data set is Escherichia coli TOP10. In words: shrunken log2 fold change of peptide-encoding DNA abundance (4.5 h post-induction vs induction); higher = less antimicrobial activity (less host growth inhibition). To be noted: time post-induction: 4.5 h; library: site-saturation at positions 5, 18, 19, 20.
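Note: peptides expressed intracellularly from a pBAD plasmid library in pooled LB shake-flask culture, induced with 0.3% L-arabinose, DNA abundance read by NGS, three biological replicates, DESeq2 with apeglm shrinkage.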

Consider RRIRERPPRLPRPRPRPQWHPRP, for which the “shrunken log2 fold change” value was -0.479. With RRIRHRPPRLPRPRPRPGNFPRP the figure was -0.537; with RRIRTRPPRLPRPRPRPKITPRP, -0.464; with RRIRQRPPRLPRPRPRPCNKPRP, 0.0281. Then RRIRQRPPRLPRPRPRPQKLPRP, with -0.0725; and RRIRMRPPRLPRPRPRPWCGPRP, with 0.134; and RRIRQRPPRLPRPRPRPEIDPRP, with -0.0412. With RRIRERPPRLPRPRPRPYLHPRP, the “shrunken log2 fold change” value is -0.96. With RRIRMRPPRLPRPRPRPNKAPRP the figure was -0.05; with RRIRARPPRLPRPRPRPTQPPRP, 0.228. Then RRIRKRPPRLPRPRPRPNHYPRP, with -0.441. With RRIRARPPRLPRPRPRPCLWPRP, the “shrunken log2 fold change” value was -0.199. With RRIRIRPPRLPRPRPRPYEVPRP the figure was -0.248. With RRIRYRPPRLPRPRPRPWLEPRP the figure was -0.118; with RRIRQRPPRLPRPRPRPQHLPRP, -0.0402. Then RRIRFRPPRLPRPRPRPLMHPRP, with -0.246; and RRIRQRPPRLPRPRPRPFYLPRP, with -0.437; and RRIRQRPPRLPRPRPRPCVAPRP, with 0.317. RRIRMRPPRLPRPRPRPEVHPRP: the “shrunken log2 fold change” value was -0.0544.

Turning to RRIRRRPPRLPRPRPRPMFYPRP, the “shrunken log2 fold change” value was -0.229. Regarding RRIRLRPPRLPRPRPRPLVAPRP, the “shrunken log2 fold change” value is 0.343. Then RRIRPRPPRLPRPRPRPMLKPRP, with 0.0171; and RRIRSRPPRLPRPRPRPTIHPRP, with -0.51; and RRIRHRPPRLPRPRPRPFIIPRP, with -0.00662.

Regarding RRIRRRPPRLPRPRPRPQDAPRP, the “shrunken log2 fold change” value amounted to 0.427. For the sequence RRIRWRPPRLPRPRPRPLVPPRP, the “shrunken log2 fold change” value is -0.000952. With RRIRGRPPRLPRPRPRPQELPRP the figure was 0.27; with RRIRLRPPRLPRPRPRPAKRPRP, 0.0374; with RRIRARPPRLPRPRPRPRHAPRP, 0.612. With RRIRRRPPRLPRPRPRPITLPRP the figure was -0.0936; with RRIRRRPPRLPRPRPRPKYNPRP, -0.384; with RRIRVRPPRLPRPRPRPHNIPRP, -0.392. Then RRIRPRPPRLPRPRPRPKRNPRP, with 0.142; and RRIRPRPPRLPRPRPRPYLNPRP, with -0.765. As to RRIRTRPPRLPRPRPRPCWNPRP, the “shrunken log2 fold change” value amounted to 0.00718.

With RRIRHRPPRLPRPRPRPLPEPRP, the “shrunken log2 fold change” value stood at 0.126.

On to RRIRLRPPRLPRPRPRPYYGPRP, for which the “shrunken log2 fold change” value was -0.838. For RRIRCRPPRLPRPRPRPSTEPRP, the “shrunken log2 fold change” value was -0.174.

With RRIRCRPPRLPRPRPRPFAIPRP, the “shrunken log2 fold change” value is -0.682.

On to RRIRQRPPRLPRPRPRPFLPPRP, for which the “shrunken log2 fold change” value is -0.0691.

RRIRFRPPRLPRPRPRPRGGPRP: the “shrunken log2 fold change” value is 0.9. RRIRSRPPRLPRPRPRPYTCPRP: the “shrunken log2 fold change” value is -0.039.

With RRIRDRPPRLPRPRPRPKYNPRP, the “shrunken log2 fold change” value is -0.813.

As for RRIRVRPPRLPRPRPRPAIMPRP, the “shrunken log2 fold change” value was determined as 0.191. Consider RRIRARPPRLPRPRPRPEWAPRP, for which the “shrunken log2 fold change” value worked out at 1.06. With RRIRDRPPRLPRPRPRPAAGPRP the figure was 0.793; with RRIRTRPPRLPRPRPRPWCRPRP, -0.263; with RRIRGRPPRLPRPRPRPPQEPRP, 0.352.

Consider RRIRSRPPRLPRPRPRPCRHPRP, for which the “shrunken log2 fold change” value was determined as 0.063.

With RRIRERPPRLPRPRPRPFWQPRP, the “shrunken log2 fold change” value is -0.0859. Turning to RRIRSRPPRLPRPRPRPKTEPRP, the “shrunken log2 fold change” value is -0.0689. With RRIRRRPPRLPRPRPRPASEPRP the figure was 0.182; with RRIRFRPPRLPRPRPRPMVTPRP, -0.138; with RRIRERPPRLPRPRPRPFYEPRP, -0.498. With RRIRKRPPRLPRPRPRPFFLPRP the figure was 0.225. With RRIRIRPPRLPRPRPRPQERPRP, the “shrunken log2 fold change” value is -0.17. As for RRIRQRPPRLPRPRPRPVFMPRP, the “shrunken log2 fold change” value was -0.155. Then RRIRGRPPRLPRPRPRPAHKPRP, with 0.551. Then RRIRNRPPRLPRPRPRPDDHPRP, with -0.0202; and RRIRIRPPRLPRPRPRPVQHPRP, with -0.38; and RRIRDRPPRLPRPRPRPEEPPRP, with 2.06. Then RRIRPRPPRLPRPRPRPPQNPRP, with 0.361; and RRIRNRPPRLPRPRPRPRNFPRP, with -0.132; and RRIRCRPPRLPRPRPRPINDPRP, with -0.505. For the sequence RRIRARPPRLPRPRPRPITCPRP, the “shrunken log2 fold change” value was -0.119.

Regarding RRIRQRPPRLPRPRPRPRYMPRP, the “shrunken log2 fold change” value was -0.0938.

As for RRIRKRPPRLPRPRPRPTCSPRP, the “shrunken log2 fold change” value stood at 0.281. Regarding RRIRPRPPRLPRPRPRPEWGPRP, the “shrunken log2 fold change” value was found to be 0.42.

Regarding RRIRVRPPRLPRPRPRPWHMPRP, the “shrunken log2 fold change” value is -0.672. Then RRIRGRPPRLPRPRPRPQGCPRP, with 0.394; and RRIRLRPPRLPRPRPRPCELPRP, with -0.358. With RRIRRRPPRLPRPRPRPFGPPRP the figure was 0.165.

For the sequence RRIRNRPPRLPRPRPRPPPMPRP, the “shrunken log2 fold change” value is 0.678. Then RRIRYRPPRLPRPRPRPQDRPRP, with -0.00674.

With RRIRHRPPRLPRPRPRPQTWPRP, the “shrunken log2 fold change” value is -0.332. With RRIRHRPPRLPRPRPRPDFVPRP the figure was -0.242; with RRIRQRPPRLPRPRPRPRVEPRP, -0.0308. RRIRRRPPRLPRPRPRPCQDPRP: the “shrunken log2 fold change” value was -0.275.

As for RRIRMRPPRLPRPRPRPMDYPRP, the “shrunken log2 fold change” value is -0.00149. With RRIRLRPPRLPRPRPRPAKCPRP, the “shrunken log2 fold change” value is -0.0859. Turning to RRIRSRPPRLPRPRPRPGRSPRP, the “shrunken log2 fold change” value worked out at 0.109.

RRIRERPPRLPRPRPRPAGQPRP: the “shrunken log2 fold change” value is -0.195. Then RRIRSRPPRLPRPRPRPQPNPRP, with -0.00561; and RRIRVRPPRLPRPRPRPCTYPRP, with -0.0569; and RRIRYRPPRLPRPRPRPNALPRP, with -0.236. Turning to RRIRFRPPRLPRPRPRPRVAPRP, the “shrunken log2 fold change” value was determined as 0.439. With RRIRLRPPRLPRPRPRPCSIPRP the figure was -0.678; with RRIRPRPPRLPRPRPRPMEKPRP, -0.00992.

In the case of RRIRTRPPRLPRPRPRPEYYPRP, the “shrunken log2 fold change” value is -0.855. As to RRIRDRPPRLPRPRPRPKRKPRP, the “shrunken log2 fold change” value worked out at 0.0894. With RRIRWRPPRLPRPRPRPDADPRP, the “shrunken log2 fold change” value turned out to be 3.34. With RRIRVRPPRLPRPRPRPRNNPRP the figure was -0.425. With RRIRLRPPRLPRPRPRPTLPPRP the figure was 0.223; with RRIRLRPPRLPRPRPRPTTGPRP, 0.0715. For the sequence RRIRWRPPRLPRPRPRPIHRPRP, the “shrunken log2 fold change” value is -0.0434.

On to RRIRVRPPRLPRPRPRPKHHPRP, for which the “shrunken log2 fold change” value is -0.357.

Take RRIRYRPPRLPRPRPRPADEPRP: the “shrunken log2 fold change” value is -0.451. With RRIRQRPPRLPRPRPRPFDCPRP the figure was -0.408. Take RRIRRRPPRLPRPRPRPGHDPRP: the “shrunken log2 fold change” value is 0.0801. With RRIRNRPPRLPRPRPRPPVNPRP, the “shrunken log2 fold change” value is -0.249. For the sequence RRIRIRPPRLPRPRPRPEKIPRP, the “shrunken log2 fold change” value is -0.0431. Then RRIRKRPPRLPRPRPRPLKQPRP, with 0.146. With RRIRERPPRLPRPRPRPDGVPRP the figure was -0.162; with RRIRKRPPRLPRPRPRPAIEPRP, 0.018. With RRIRKRPPRLPRPRPRPKRQPRP the figure was 0.0282; with RRIRARPPRLPRPRPRPFDTPRP, -0.333.

Consider RRIRPRPPRLPRPRPRPLCMPRP, for which the “shrunken log2 fold change” value was -0.444. With RRIRLRPPRLPRPRPRPGPYPRP the figure was -0.215. With RRIRSRPPRLPRPRPRPMLLPRP the figure was 3.53; with RRIRLRPPRLPRPRPRPFQRPRP, -0.0382.

RRIRVRPPRLPRPRPRPIMYPRP: the “shrunken log2 fold change” value was -0.514.

With RRIRYRPPRLPRPRPRPHALPRP, the “shrunken log2 fold change” value is -0.656. With RRIRVRPPRLPRPRPRPWCHPRP the figure was -0.291; with RRIRARPPRLPRPRPRPQNFPRP, -0.0953; with RRIRARPPRLPRPRPRPFNQPRP, -0.257. With RRIRLRPPRLPRPRPRPTRSPRP the figure was 0.467; with RRIRSRPPRLPRPRPRPPNGPRP, 0.36. Then RRIRMRPPRLPRPRPRPGKHPRP, with 4.3; and RRIRMRPPRLPRPRPRPRFHPRP, with 0.142. For the sequence RRIRARPPRLPRPRPRPYNEPRP, the “shrunken log2 fold change” value was -0.524. With RRIRCRPPRLPRPRPRPWLLPRP the figure was -0.381; with RRIRWRPPRLPRPRPRPQWMPRP, 0.0674. Then RRIRFRPPRLPRPRPRPLTIPRP, with -0.219.

For RRIRGRPPRLPRPRPRPHDVPRP, the “shrunken log2 fold change” value amounted to 0.118.

For the sequence RRIRPRPPRLPRPRPRPSMTPRP, the “shrunken log2 fold change” value turned out to be 0.496.
